Results: the supplement of paper PMC5998384

Assays:
[1] = test system: HeLa Kyoto; assay: thermal stability score vs G1/S (z-score of summed log2 fold changes over temperatures); higher = more thermally stable than in G1/S
[2] = test system: HeLa Kyoto; assay: melting temperature (median over replicates), in situ; higher = more thermally stable
[3] = test system: HeLa Kyoto; assay: solubility in G1/S (NP-40 vs SDS abundance) (log2 ratio); higher = more soluble; settings: cell cycle stage: G1/S
[4] = test system: HeLa Kyoto; assay: solubility change mitosis vs G1/S (difference of NP-40 vs SDS log2 ratios) (log2 ratio difference); higher = more soluble in mitosis
[5] = cell cycle stage: early G1 (4.5 h after nocodazole release)
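Wherever melting temperature (median over replicates), in situ is given: HeLa Kyoto cells synchronized by double thymidine or nocodazole block, proteins quantified by TMT10plex mass spectrometry, three independent biological replicates.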
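Wherever solubility change mitosis vs G1/S (difference of NP-40 vs SDS log2 ratios) is given: synchronized HeLa Kyoto cells (double thymidine block for G1/S, nocodazole release for mitosis), protein amounts in NP-40 versus SDS lysates quantified by mass spectrometry, three biological replicates.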
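Wherever solubility in G1/S (NP-40 vs SDS abundance) is given: HeLa Kyoto cells arrested at G1/S by double thymidine block, proteins quantified by TMT10plex mass spectrometry in mild NP-40 versus SDS extracts, three biological replicates.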
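Wherever thermal stability score vs G1/S (z-score of summed log2 fold changes over temperatures) is given: synchronized HeLa Kyoto cells, proteins quantified by TMT10plex mass spectrometry, three biological replicates, mitosis taken 0.5 h after nocodazole release, G1/S directly after double thymidine block.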

“MHPRRPDGFDGLGYRGGARDEQGFGGAFPARSFSTGSDLGHWVTTPPDIPGSRNLHWGEKSPPYGVPTTSTPYEGPTEEPFSSGGGGSVQGQSSEQLNRFAGFGIGLASLFTENVLAHPCIVLRRQCQVNYHAQHYHLTPFTVINIMYSFNKTQGPRALWKGMGSTFIVQGVTLGAEGIISEFTPLPREVLHKWSPKQIGEHLLLKSLTYVVAMPFYSASLIETVQSEIIRDNTGILECVKEGIGRVIGMGVPHSKRLLPLLSLIFPTVLHGVLHYIISSVIQKFVLLILKRKTYNSHLAESTSPVQSMLDAYFPELIANFAASLCSDVILYPLETVLHRLHIQGTRTIIDNTDLGYEVLPINTQYEGMRDCINTIRQEEGVFGFYKGFGAVIIQYTLHAAVLQITKIIYSTLLQNNI [SLC25A46]” was tested, and the thermal stability score [1, 5] was -2.69, the thermal stability score ([1]; cell cycle stage: mitosis) was -1.76 and the melting temperature ([2]; cell cycle stage: G1/S) was 54.2 °C. For the same sequence, the melting temperature ([2]; cell cycle stage: mitosis) was 53.8 °C, the “solubility in G1/S (log2)” value [3] was 0.0119 and the “solubility change mitosis (log2)” value [4] was -0.0414.

“MHRKKVDNRIRILIENGVAERQRSLFVVVGDRGKDQVVILHHMLSKATVKARPSVLWCYKKELGFSSHRKKRMRQLQKKIKNGTLNIKQDDPFELFIAATNIRYCYYNETHKILGNTFGMCVLQDFEALTPNLLARTVETVEGGGLVVILLRTMNSLKQLYTVTMDVHSRYRTEAHQDVVGRFNERFILSLASCKKCLVIDDQLNILPISSHVATMEALPPQTPDESLGPSDLELRELKESLQDTQPVGVLVDCCKTLDQAKAVLKFIEGISEKTLRSTVALTAARGRGKSAALGLAIAGAVAFGYSNIFVTSPSPDNLHTLFEFVFKGFDALQYQEHLDYEIIQSLNPEFNKAVIRVNVFREHRQTIQYIHPADAVKLGQAELVVIDEAAAIPLPLVKSLLGPYLVFMASTINGYEGTGRSLSLKLIQQLRQQSAQSQVSTTAENKTTTTARLASARTLYEVSLQESIRYAPGDAVEKWLNDLLCLDCLNITRIVSGCPLPEACELYYVNRDTLFCYHKASEVFLQRLMALYVASHYKNSPNDLQMLSDAPAHHLFCLLPPVPPTQNALPEVLAVIQVCLEGEISRQSILNSLSRGKKASGDLIPWTVSEQFQDPDFGGLSGGRVVRIAVHPDYQGMGYGSRALQLLQMYYEGRFPCLEEKVLETPQEIHTVSSEAVSLLEEVITPRKDLPPLLLKLNERPAERLDYLGVSYGLTPRLLKFWKRAGFVPVYLRQTPNDLTGEHSCIMLKTLTDEDEADQGGWLAAFWKDFRRRFLALLSYQFSTFSPSLALNIIQNRNMGKPAQPALSREELEALFLPYDLKRLEMYSRNMVDYHLIMDMIPAISRIYFLNQLGDLALSAAQSALLLGIGLQHKSVDQLEKEIELPSGQLMGLFNRIIRKVVKLFNEVQEKAIEEQMVAAKDVVMEPTMKTLSDDLDEAAKEFQEKHKKEVGKLKSMDLSEYIIRGDDEEWNEVLNKAGPNASIISLKSDKKRKLEAKQEPKQSKKLKNRETKNKKDMKLKRKK [NAT10]” was tested, and the thermal stability score [1, 5] was 1.83, the thermal stability score ([1]; cell cycle stage: mitosis) was 1.3 and the melting temperature ([2]; cell cycle stage: G1/S) was 49.8 °C. For the same sequence, the melting temperature ([2]; cell cycle stage: mitosis) was 52.1 °C, the “solubility in G1/S (log2)” value [3] was -2.26 and the “solubility change mitosis (log2)” value [4] was 0.692.

Sequence “MIEQQKRKGPELPLVPVKRQRHELLLGAGSGPGAGQQQATPGALLQAGPPRCSSLQAPIMLLSGHEGEVYCCKFHPNGSTLASAGFDRLILLWNVYGDCDNYATLKGHSGAVMELHYNTDGSMLFSASTDKTVAVWDSETGERVKRLKGHTSFVNSCYPARRGPQLVCTGSDDGTVKLWDIRKKAAIQTFQNTYQVLAVTFNDTSDQIISGGIDNDIKVWDLRQNKLTYTMRGHADSVTGLSLSSEGSYLLSNAMDNTVRVWDVRPFAPKERCVKIFQGNVHNFEKNLLRCSWSPDGSKIAAGSADRFVYVWDTTSRRILYKLPGHAGSINEVAFHPDEPIIISASSDKRLYMGEIQ [SNRNP40]” has a thermal stability score [1, 5] of -0.469, a thermal stability score ([1]; cell cycle stage: mitosis) of -0.465 and a melting temperature ([2]; cell cycle stage: G1/S) of 49.9 °C. For the same sequence, the melting temperature ([2]; cell cycle stage: mitosis) was 50.7 °C, the “solubility in G1/S (log2)” value [3] was -1.09 and the “solubility change mitosis (log2)” value [4] was 0.366.

For “MIRNGRGAAGGAEQPGPGGRRAVRVWCDGCYDMVHYGHSNQLRQARAMGDYLIVGVHTDEEIAKHKGPPVFTQEERYKMVQAIKWVDEVVPAAPYVTTLETLDKYNCDFCVHGNDITLTVDGRDTYEEVKQAGRYRECKRTQGVSTTDLVGRMLLVTKAHHSSQEMSSEYREYADSFGKCPGGRNPWTGVSQFLQTSQKIIQFASGKEPQPGETVIYVAGAFDLFHIGHVDFLEKVHRLAERPYIIAGLHFDQEVNHYKGKNYPIMNLHERTLSVLACRYVSEVVIGAPYAVTAELLSHFKVDLVCHGKTEIIPDRDGSDPYQEPKRRGIFRQIDSGSNLTTDLIVQRIITNRLEYEARNQKKEAKELAFLEAARQQAAQPLGERDGDF [PCYT2]”, the thermal stability score [1, 5] was 0.197, the thermal stability score ([1]; cell cycle stage: mitosis) was 0.0948 and the melting temperature ([2]; cell cycle stage: G1/S) was 54.1 °C. For the same sequence, the melting temperature ([2]; cell cycle stage: mitosis) was 54.9 °C, the “solubility in G1/S (log2)” value [3] was 0.000861 and the “solubility change mitosis (log2)” value [4] was -0.199.

“MITSELPVLQDSTNETTAHSDAGSELEETEVKGKRKRGRPGRPPSTNKKPRKSPGEKSRIEAGIRGAGRGRANGHPQQNGEGEPVTLFEVVKLGKSAMQSVVDDWIESYKQDRDIALLDLINFFIQCSGCRGTVRIEMFRNMQNAEIIRKMTEEFDEDSGDYPLTMPGPQWKKFRSNFCEFIGVLIRQCQYSIIYDEYMMDTVISLLTGLSDSQVRAFRHTSTLAAMKLMTALVNVALNLSIHQDNTQRQYEAERNKMIGKRANERLELLLQKRKELQENQDEIENMMNSIFKGIFVHRYRDAIAEIRAICIEEIGVWMKMYSDAFLNDSYLKYVGWTLHDRQGEVRLKCLKALQSLYTNRELFPKLELFTNRFKDRIVSMTLDKEYDVAVEAIRLVTLILHGSEEALSNEDCENVYHLVYSAHRPVAVAAGEFLHKKLFSRHDPQAEEALAKRRGRNSPNGNLIRMLVLFFLESELHEHAAYLVDSLWESSQELLKDWECMTELLLEEPVQGEEAMSDRQESALIELMVCTIRQAAEAHPPVGRGTGKRVLTAKERKTQIDDRNKLTEHFIITLPMLLSKYSADAEKVANLLQIPQYFDLEIYSTGRMEKHLDALLKQIKFVVEKHVESDVLEACSKTYSILCSEEYTIQNRVDIARSQLIDEFVDRFNHSVEDLLQEGEEADDDDIYNVLSTLKRLTSFHNAHDLTKWDLFGNCYRLLKTGIEHGAMPEQIVVQALQCSHYSILWQLVKITDGSPSKEDLLVLRKTVKSFLAVCQQCLSNVNTPVKEQAFMLLCDLLMIFSHQLMTGGREGLQPLVFNPDTGLQSELLSFVMDHVFIDQDEENQSMEGDEEDEANKIEALHKRRNLLAAFSKLIIYDIVDMHAAADIFKHYMKYYNDYGDIIKETLSKTRQIDKIQCAKTLILSLQQLFNELVQEQGPNLDRTSAHVSGIKELARRFALTFGLDQIKTREAVATLHKDGIEFAFKYQNQKGQEYPPPNLAFLEVLSEFSSKLLRQDKKTVHSYLEKFLTEQMMERREDVWLPLISYRNSLVTGGEDDRMSVNSGSSSSKTSSVRNKKGRPPLHKKRVEDESLDNTWLNRTDTMIQTPGPLPAPQLTSTVLRENSRPMGDQIQEPESEHGSEPDFLHNPQMQISWLGQPKLEDLNRKDRTGMNYMKVRTGVRHAVRGLMEEDAEPIFEDVMMSSRSQLEDMNEEFEDTMVIDLPPSRNRRERAELRPDFFDSAAIIEDDSGFGMPMF [STAG1]” gave a thermal stability score [1, 5] of -0.0959, a thermal stability score ([1]; cell cycle stage: mitosis) of -1.71 and a melting temperature ([2]; cell cycle stage: G1/S) of 52 °C. The melting temperature ([2]; cell cycle stage: mitosis) was 50.6 °C, the “solubility in G1/S (log2)” value [3] was -0.226 and the “solubility change mitosis (log2)” value [4] was 0.0363.

In the case of “MIVQRVVLNSRPGKNGNPVAENFRMEEVYLPDNINEGQVQVRTLYLSVDPYMRCRMNEDTGTDYITPWQLSQVVDGGGIGIIEESKHTNLTKGDFVTSFYWPWQTKVILDGNSLEKVDPQLVDGHLSYFLGAIGMPGLTSLIGIQEKGHITAGSNKTMVVSGAAGACGSVAGQIGHFLGCSRVVGICGTHEKCILLTSELGFDAAINYKKDNVAEQLRESCPAGVDVYFDNVGGNISDTVISQMNENSHIILCGQISQYNKDVPYPPPLSPAIEAIQKERNITRERFLVLNYKDKFEPGILQLSQWFKEGKLKIKETVINGLENMGAAFQSMMTGGNIGKQIVCISEEISL [PTGR2]”, the thermal stability score [1, 5] is reported as 0.0557, the thermal stability score ([1]; cell cycle stage: mitosis) is reported as -0.682 and the melting temperature ([2]; cell cycle stage: G1/S) is reported as 50.5 °C. The melting temperature ([2]; cell cycle stage: mitosis) was 50.6 °C, the “solubility in G1/S (log2)” value [3] was 0.0876 and the “solubility change mitosis (log2)” value [4] was -0.0529.

Work on “MKAVVQRVTRASVTVGGEQISAIGRGICVLLGISLEDTQKELEHMVRKILNLRVFEDESGKHWSKSVMDKQYEILCVSQFTLQCVLKGNKPDFHLAMPTEQAEGFYNSFLEQLRKTYRPELIKDGKFGAYMQVHIQNDGPVTIELESPAPGTATSDPKQLSKLEKQQQRKEKTRAKGPSESSKERNTPRKEDRSASSGAEGDVSSEREP [DTD1]” yielded a thermal stability score [1, 5] of 2.15, a thermal stability score ([1]; cell cycle stage: mitosis) of 0.509 and a melting temperature ([2]; cell cycle stage: G1/S) of 58.3 °C. The melting temperature ([2]; cell cycle stage: mitosis) was 57.5 °C, the “solubility in G1/S (log2)” value [3] was 0.119 and the “solubility change mitosis (log2)” value [4] was 0.00349.
